In the RNAGym collection of RNA variant scans (doi:10.1073/pnas.2313332121):

B1: TPR t1 (parent)
chain: GACCAAUCUGCCCUCAGAGCUCGAGAACAUCUUCGGAUGCAGAGGAGGCAGGCUUCGGUGGCGCGAUAGCGCCAACGUCCUCAACCUCCAAUGCAUCCCACCACAUGAUGAUGCCUGAAGAGCCUUGGUUUUUUG

Variants of: B1
Test: polymerase ribozyme fitness, log enrichment relative to wild type (log ratio); higher = more active; in vitro selection for triplet polymerase activity
In short: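 Mutant libraries of both subunits of a heterodimeric triplet polymerase ribozyme were PCR-built, transcribed, and selected once in triplicate, with frozen incubation at −7 °C and capture of gel-excised extended constructs on streptavidin beads before RT-PCR. Illumina sequencing of input and output libraries was filtered to genotypes with ≥10 input reads and ≥1 read per output. Fitness is the logarithm of genotype enrichment over wild-type enrichment, using inverse-variance-weighted replicate averages. The logarithm is base 2.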

Row | Variant | polymerase ribozyme fitness (log ratio)
1 | GACCAAUCUGGCCUCAGAGCUCGAGAACAUCUUCGGAUGCAGAGGAGGCAGGCUUCGGUGGCGCGAUAGCGCCAACGUCCUCAACCUCCAAUGCAUCCCACCACAUGAUGAUGCUUGAAGAGCCUUGGUUUUUUG | -1.01
2 | GACCAAUCUGGCCUCAUAGCUCGAGAACAUCUUCGGAUGCAGAGGAGGCUGGCUUCGGUGGCGCGAUAGCUCCAACGUCCUCAAACCCCAAUGCAUCCCACCACAUGAUGAUGCCUGAAGAGCCUUGGUUUUUUG | -5.37
3 | GACCAAUCUGGCCUCAUAGCUCGAGAACAUCUUCGGAUGCAGAGGAGGCAGGCUUCGGUGACGCGAUAGCGCCAACGUCCUCAACCUCCAAUGCAUCCCACCACGUGAUGAUGCCUGAAGAGCCUUGGUUUUUUG | -6.42
4 | GACCAAUCUGGCCUCAGAACUCGAGAACAUCUUCGGAUGCAGAGGAGGCAGGCUUUGGUGGCGCGAUAGCGCUAACGUCCUCAACCUCCAAUGCAUCCCACCACAUGAUGAUGCCUGAAGAGCCUUGGUUUUUUG | -2.04
5 | GACCAAUCUGGCCUCAGAACUCGAGAACAUCUUCGGAUGCAGAGGACACAGGCUUCGGUGGCGCGAUAGCGCCAACGUCCUCAACCUCCAAUGCAUCCCACCACAUGAUGAUGCCUGAAGAGCCUUGGUUUUUUG | -3.86
6 | GACCAAUCUGGCCUCAGACCUCGAGAACAUCUUCGGAUGCAGAGGAGGCAGGCUUCGGUGGCGCGAUAGCGCGAACGUCCUCAACCUCCAAUGCAUCCCACCACAUGAUGAUGCCUGAAGAGCCUUGGUUUUUUG | -3.75
7 | GACCAAUCUGGCCUCAGACCUCAAGAACAUCUUCGGAUGCAGAGGAGGCAGGCUUCGGUGGCACGAUAGCGCCAACGUCCUCCACCUCCAAUGCAUCCCACCACAUGAUGAUGUUUGAAGAGGCUUGGUUUUUUG | -7.99
8 | GACCAAUCUGGCCUCAGAGCUCAAGAACAUCUUCGGAUGCAGAGGAGGCAGGCUUCGGUGGCGCGAUAGCGCCAAUGUCCUCAACCUCCAAUGCAUCCCACCACAUGAUGAUGCCUGAAGAGCCUUGGUUUUUUG | -6.14
9 | GACCAAUCUGGCCUCAGAGCUCUAGAACAUCUUCGGAUCCAGAGCACGCAGGCUUCGGUGGCGCGAUAGCGCCAACGUCCUCAACCUCUAAUGCAUCCGACCACAUGAUGAUGCUUGAAGAGCCUUGGUUUUUUG | -7.14
10 | GACCAAUCUGGCCUCAGAGCUCGAGAACAUCUUCAGAUGCAGAGGAGGCAGGCUUCGGUGGCGCGAUAGCGCCAACGUCCUCAACCUCCAAUGCAUCCCACCACAUGAUGAUGCCUGAAGAGCCUUGGUUUUUUG | -2.51
11 | GACCAAUCUGGCCUCAGAGCUCGAGAACAUCUUCGAAUGCAGAGGAGGCAGGCUUCGGUGGCGCGAUAGCGCCAACGUCCUCAACCUCCAAUGCAUCCCACCACAUGAUGAUGCCUGAAGAGCCUUGGUUUUUUG | 0.396
12 | GACCAAUCUGGCCUCAGAGCUCGAGAACAUCUUCGGAUACAGAGGAGGCAGGCUUCGGUGGCGCGAUAGCGCCAACGUCCUCAACCUCCAAUGCAUCCCACCACAUGAUGAUGCCUGAAGAGCAUUGGUUUUUUG | 1.48
13 | GACCAAUCUGGCCUCAGAGCUCGAGAACAUCUUCGGAUACAGAGGAGGCAGGCUUCGGUCGCGCGAUAGCGCCAACGUCCUCAACCUCCAAUGCAUCCCACCACAUGAUGAUGCCUGAAGAGCCUUGGUUUUUUG | -0.748
14 | GACCAAUCUGGCCUCAGAGCUCGAGAACAUCUUCGGAUCCAGAGGAGGCAGGCUUCGGUGGCGCGAUAGCGCCUACGUCCUCAACCUCCAAUGCAUCCCACCACAUGAUGAUGCUUGAAGAGCCUUGGUUUUUUG | -2.3
15 | GACCAAUCUGGCCUCAGAGCUCGAGAACAUCUUCGGAUGCAAAGGAGGCAGGCUUCGGAGGCGCGAUAGCGCCAACGUCCUCAACCUCCACUGAGUCCCACCACAUGAUGAUGCCUGGAGAGCCUUGGUUUUUUG | -4.19
16 | GACCAAUCUGGCCUCAGAGCUCGAGAACAUCUUCGGAUGCACAGGAGGCAGGCUUCGGUGGCGCGAUUGCGACAACGUCCUCAACCUCCAUUGCAUCCCACCACAUGAUGAUCCCUGAAGAGCCUUGGUUUUUUG | -8.47
17 | GACCAAUCUGGCCUCAGAGCUCGAGAACAUCUUCGGAUGCACAGGAGGCAGGCUUCGGUGGCGCGAUAGCGCCAACGUCCUCAACCUCCAAUGCUUCCCACCACAUGAUGAUGCCUGAAGAGCCUUGGUUUUUUG | -1.3
18 | GACCAAUCUGGCCUCAGAGCUCGAGAACAUCUUCGGAUGCACAGGAGGUAGGCUUCGGUGGCGCGAUAGCGCCAACGUCCUCAACCUCCAAUGCAUCCCACCACAUGAUGAUGCCUCAAGAGCGUUGGUUUUUUG | -4.14
19 | GACCAAUCUGGCCUCAGAGCUCGAGAACAUCUUCGGAUGCAGACGAGGCAGGCUUCGGUGGCGCGGUAGCGCCAACGUCCUCGACCUCCAAUGCAUCCCACCACAUGAUGAUGACUGAAGAGCCUUGGUUUUAUG | -5.39
20 | GACCAAUCUGGCCUCAGAGCUCGAGAACAUCUUCGGAUGCAGAGGAAGCAGGCUUCGGUGGCGCGAUAGCGCCAACGUCCUCAACCUCCAAUGCAUCCCACCACAUGAUGAUGCCUGAAGAGCCUUGGUUUUUUG | -0.824
21 | GACCAAUCUGGCCUCAGAGCUCGAGAACAUCUUCGGAUGCAGAGGAUGCAGGCUUCGGUGGCGCGAUAGCGCCAACGUCCUCAACCUCCAAUGCAUCCCACCACAUGAUGAUGCCUGAAGAGCCUUGGUUUUUUG | -0.345

Row | Variant | polymerase ribozyme fitness (log ratio)
22 | GACCAAUCUGGCCUCAGAGCUCGAGAACAUCUUCGGAUGCAGAGGAUGCAGGCUUUGGUGGCGCGAUAGCGCCAACGUCCUCAACCUCCAAUGCAUCCCACCACAUGAUGACGCCUGAAGAACCUUGGUUUUUUG | -0.322
23 | GACCAAUCUGGCCUCAGAGCUCGAGAACAUCUUCGGAUGCAGAGGAUGCAGGCUUCGGUGGCACGAUAGCGCCAACGUACUCAACCUCCAAUGCAUCCCACCACAUGAUGAUGCCUGAAGAGCCUUGGUUUUUUG | -3.91
24 | GACCAAUCUGGCCUCAGAGCUCGAGAACAUCUUCGGAUGCAGAGGAGCCAGGCUUCGGUGGCGCGGUAGCGCCAACGUCCUCAACCUCCAAUGCAUCCCACCACAUGAUAAUGCCUGAAGAGCCUUGGUUUUUUG | -3.11
25 | GACCAAUCUGGCCUCAGAGCUCGAGAACAUCUUCGGAUGCAGAGGAGUCAGGCUUCGGUGGCGCGAUAGCGACAACGUCCUCAACCUCCAAUGCAUCCCACCACAUGAUGAUGCCUGAAGAGCCUUGGUUUUUUG | -0.215
26 | GACCAAUCUGGCCUCAGAGCUCGAGAACAUCUUCGGAUGCAGAGGAGUCAGGCUUCGGUGACGCGAUAGCGCAAACGUCCUCAACCUCCGAUGCAUCCCACCACAUGAUGAUGCCUGAAGAGCCUUGGUUUUUUG | -2.19
27 | GACCAAUCUGGCCUCAGAGCUCGAGAACAUCUUCGGAUGCAGAGGAGGCAAGCUUCGGUGGCGCGAUAGCGACAACGUCCUCAACCUCCAAUGCAUCCCACCACAUGAUGAUGCCUGAAGAGCCUUGGUUUUUUG | -2.19
28 | GACCAAUCUGGCCUCAGAGCUCGAGAACAUCUUCGGAUGCAGAGGAGGCACGCUUCGGUGGCGCGAUAGCGCCAACGUCCUCAACCUCCAAUGCAUCCCACCACAUGAUGAUGCCUGAAGAGCCUUGGUUUUUUG | -4.46
29 | GACCAAUCUGGCCUCAGAGCUCGAGAACAUCUUCGGAUGCAGAGGAGGCAGACUUAGGUGGCGCGAUAGCGCCAACGUCCUCAACCUCCAAUGCAUCCCACCACAUGAUGAUGCCUGAAGAGCCUUGGUUUUUUG | -0.203
30 | GACCAAUCUGGCCUCAGAGCUCGAGAACAUCUUCGGAUGCAGAGGAGGCAGACUUCGGUGGCGCGAUAGCGCCAACGUCCUCAACCUCCAAUGCAUCCUACCACAGGAUGAUGCCUGAAGAGCCUUGGUUUUUUG | -4.99
31 | GACCAAUCUGGCCUCAGAGCUCGAGAACAUCUUCGGAUGCAGAGGAGGCAGACAUCGGUGGCGCGAUAGCGCCAACGUCCUCAACCUCCAAUGCAUCACACCACAUGAUGAUGCCUGAAGAGCCUUGGUUUUUUG | -5.44
32 | GACCAAUCUGGCCUCAGAGCUCGAGAACAUCUUCGGAUGCAGAGGAGGCAGUCUUCGGUGGCGCGAUAGCGCCAACGUCCUCAACCUCCAAUGCAUCCCACCACAUGAUGAUGCCUGGAGAGCGUUGGUUUUUUG | 0.453
33 | GACCAAUCUGGCCUCAGAGCUCGAGAACAUCUUCGGAUGCAGAGGAGGCAGGCUUCGGUAGCGCGAUAGUGCCAACGUCCUCAACCUCCAAUGCAUCCCACCACAUGAUGAUGCCUGAAGAGCCUUGGUUUUUUG | -0.917
34 | GACCAAUCUGGCCUCAGAGCUCGAGAACAUCUUCGGAUGCAGAGGAGGCAGGCUUCGGUGACGUGAUAGCGCCAACGUCCUCAACCUCCAAUGCAUCCCACCACAUGAUGAUGCCUGAAUAGCCUUGGUUUUUUG | -0.77
35 | GACCAAUCUGGCCUCAGAGCUCGAGAACAUCUUCGGAUGCAGAGGAGGCAGGCUUCGGUGCCGCGAUAGCGCCAACGACCUCAACCUCCAAUGCAUCCCACCACAUGAUGAUGCCUGAAGAGCCUAGGUUUUUUG | -0.897
36 | GACCAAUCUGGCCUCAGAGCUCGAGAACAUCUUCGGAUGCAGAGGAGGCAGGCUUCGGUGCCGCGAUAGCGCCAACGCCCUCAACCUCCAAUGCAUCCCACCACAUGAUGAUGCCUGAAGAGCCUAGGUUUUUUG | -4.7
37 | GACCAAUCUGGCCUCAGAGCUCGAGAACAUCUUCGGAUGCAGAGGAGGCAGGCUUCGGUGUCGCGAUAGCGCCAACGUCCUCAACAUCCAAUGCAUCCCACCACAGGAUGAUGUCUGAAGAGCCUUGGUUUUUUG | -4.18
38 | GACCAAUCUGGCCUCAGAGCUCGAGAACAUCUUCGGAUGCAGAGGAGGCAGGCUUCGGUGGCACGAUAGCGCCAACGUCCUCAACCUCCAAUGCAUCCCACCACAUGAUGGUGCCUGAAGAGCCUUGGUUUUUUG | -0.361
39 | GACCAAUCUGGCCUCAGAGCUCGAGAACAUCUUCGGAUGCAGAGGAGGCAGGCUUCGGUGGCGCGAUAAAGCCAACGUCCUCAACCUCCAAUGCAUCCCACCACAUGAUGAUGCCUGAAGAGCCUUGGUUUUUUG | -4.98
40 | GACCAAUCUGGCCUCAGAGCUCGAGAACAUCUUCGGAUGCAGAGGAGGCAGGCUUCGGUGGCGCGAUAGCACCAACGUCCUCAACCUCUAAUGCAUCCCACCACAUGAUUAUGCCUGAAGAGCCUUGGUUUUUUG | -3.53
41 | GACCAAUCUGGCCUCAGAGCUCGAGAACAUCUUCGGAUGCAGAGGAGGCAGGCUUCGGUGGCGCGAUAGCACCAACGUCCUCAACCUCCAAUGCAUCCCACCACAGGAUGAUGCCUGAAGAGCCUUGGUUUUUUG | -2.48
42 | GACCAAUCUGGCCUCAGAGCUCGAGAACAUCUUCGGAUGCAGAGGAGGCAGGCUUCGGUGGCGCGAUAGCGCCAACUUCUUCAACCUCCAAUGCAUCCCACCACAUGAUGAUUCCUGAAGAGCCUUGGUUUUUUG | -3.12
